Laboratory results from US20150258192A1, “COMPOSITIONS AND METHODS FOR PREVENTING OR TREATING CHRONIC LUNG ALLOGRAFT DYSFUNCTION (CLAD) AND IDIOPATHIC PULMONARY FIBROSIS (IPF)” (priority 2014, published 2015).
No end group written: not given here.

target: T1, Rsk3(h) (Homo sapiens, UniProt Q15349); assay: Kinase Profiling Assay; format: biochemical; conditions: peptide 100 μM
T1 construct: purchased Millipore
How it was run: (§1)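 Radiometric filter-binding format: cationic substrate takes up labeled phosphate from ATP unless the inhibitor peptide blocks the kinase. Substrate bound to an anionic filter, scintillation-counted, normalized to 100% activity control. Duplicates; part of a 266-kinase selectivity panel for MK2 peptides.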

T1 sequence (Q15349 whole entry): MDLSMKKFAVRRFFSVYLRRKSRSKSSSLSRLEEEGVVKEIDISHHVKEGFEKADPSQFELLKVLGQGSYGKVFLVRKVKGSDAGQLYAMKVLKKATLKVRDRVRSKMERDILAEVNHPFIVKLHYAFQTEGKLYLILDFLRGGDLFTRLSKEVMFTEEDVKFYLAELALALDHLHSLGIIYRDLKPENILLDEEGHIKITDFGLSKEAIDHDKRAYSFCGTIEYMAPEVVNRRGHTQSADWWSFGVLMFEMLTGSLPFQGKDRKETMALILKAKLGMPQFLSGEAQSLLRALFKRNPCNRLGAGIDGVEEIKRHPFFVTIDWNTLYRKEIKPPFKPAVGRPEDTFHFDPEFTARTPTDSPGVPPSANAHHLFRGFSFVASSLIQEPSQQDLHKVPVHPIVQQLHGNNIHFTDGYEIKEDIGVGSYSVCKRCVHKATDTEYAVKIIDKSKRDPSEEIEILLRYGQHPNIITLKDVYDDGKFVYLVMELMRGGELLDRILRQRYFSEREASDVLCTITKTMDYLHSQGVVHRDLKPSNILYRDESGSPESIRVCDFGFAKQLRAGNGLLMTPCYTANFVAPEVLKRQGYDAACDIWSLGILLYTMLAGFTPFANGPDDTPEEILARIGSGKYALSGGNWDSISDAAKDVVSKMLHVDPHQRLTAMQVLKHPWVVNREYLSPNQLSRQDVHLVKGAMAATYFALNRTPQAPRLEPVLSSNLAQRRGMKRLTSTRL

Row | Sequence | % activity [%]
1 | FAKLAARLYRKALARQLGVAA [MMI-0300] | 76
2 | HRRIKAWLKKIKALARQLGVAA (Mammal) [MMI-0500] | 23
3 | KAFAKLAARLYRKALARQLGVAA [MMI-0400] | 71

target: T2, GCK(h) (Homo sapiens, UniProt Q12851); assay: Kinase Profiling Assay; format: biochemical; conditions: peptide 100 μM
T2 construct: purchased Millipore
T2 sequence (Q12851 1-820): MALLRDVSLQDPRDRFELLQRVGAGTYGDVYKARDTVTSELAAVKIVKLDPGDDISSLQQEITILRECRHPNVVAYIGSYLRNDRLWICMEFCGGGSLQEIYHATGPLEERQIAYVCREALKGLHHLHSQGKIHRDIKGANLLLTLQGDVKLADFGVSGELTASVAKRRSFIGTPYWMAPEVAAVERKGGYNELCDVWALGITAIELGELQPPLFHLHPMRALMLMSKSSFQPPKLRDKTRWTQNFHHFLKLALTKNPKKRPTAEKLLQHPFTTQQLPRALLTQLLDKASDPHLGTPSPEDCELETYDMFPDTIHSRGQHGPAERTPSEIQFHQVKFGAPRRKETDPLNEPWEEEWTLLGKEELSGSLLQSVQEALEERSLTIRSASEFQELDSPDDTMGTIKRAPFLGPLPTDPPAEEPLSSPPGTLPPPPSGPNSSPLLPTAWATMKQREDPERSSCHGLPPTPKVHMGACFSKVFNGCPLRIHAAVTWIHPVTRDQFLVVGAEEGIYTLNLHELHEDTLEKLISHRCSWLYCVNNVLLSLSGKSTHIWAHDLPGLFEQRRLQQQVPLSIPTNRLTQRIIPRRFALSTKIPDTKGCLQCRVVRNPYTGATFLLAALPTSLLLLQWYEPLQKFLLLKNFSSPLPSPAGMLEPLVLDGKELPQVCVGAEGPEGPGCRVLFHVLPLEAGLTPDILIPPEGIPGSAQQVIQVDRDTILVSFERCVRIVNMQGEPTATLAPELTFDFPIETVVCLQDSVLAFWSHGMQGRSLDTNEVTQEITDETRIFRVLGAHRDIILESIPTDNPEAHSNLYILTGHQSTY
How it was run: as §1

Row | Sequence | % activity [%]
4 | FAKLAARLYRKALARQLGVAA [MMI-0300] | 70
5 | HRRIKAWLKKIKALARQLGVAA (Mammal) [MMI-0500] | 30
6 | KAFAKLAARLYRKALARQLGVAA [MMI-0400] | 66
7 | YARAAARQARAKALARQLGVAA [MMI-0100] | 98
8 | YARAAARQARAKALNRQLGVA (Mammal) [MMI-0200] | 99

target: T3, CHK1(h) (Homo sapiens, UniProt O14757); assay: Kinase Profiling Assay; format: biochemical; conditions: peptide 100 μM
T3 sequence (O14757 1-476): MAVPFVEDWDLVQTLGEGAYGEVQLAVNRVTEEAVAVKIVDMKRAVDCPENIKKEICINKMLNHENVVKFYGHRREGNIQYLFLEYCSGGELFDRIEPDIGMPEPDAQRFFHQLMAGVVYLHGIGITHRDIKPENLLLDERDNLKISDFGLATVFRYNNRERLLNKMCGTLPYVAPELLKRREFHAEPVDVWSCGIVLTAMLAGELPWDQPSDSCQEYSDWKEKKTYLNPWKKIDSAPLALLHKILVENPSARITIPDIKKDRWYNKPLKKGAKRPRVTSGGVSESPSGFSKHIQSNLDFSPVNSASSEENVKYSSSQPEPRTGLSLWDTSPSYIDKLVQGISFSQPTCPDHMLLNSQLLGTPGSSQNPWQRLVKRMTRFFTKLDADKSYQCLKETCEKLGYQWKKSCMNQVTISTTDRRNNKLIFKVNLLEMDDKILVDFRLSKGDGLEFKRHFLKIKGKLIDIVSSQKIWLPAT
How it was run: as §1

Row | Sequence | % activity [%]
9 | FAKLAARLYRKALARQLGVAA [MMI-0300] | 91
10 | HRRIKAWLKKIKALARQLGVAA (Mammal) [MMI-0500] | 65
11 | KAFAKLAARLYRKALARQLGVAA [MMI-0400] | 87

target: T4, LKB1(h) (Homo sapiens, UniProt Q15831); assay: Kinase Profiling Assay; format: biochemical; conditions: peptide 100 μM
T4 construct: purchased Millipore
T4 sequence (Q15831 1-433): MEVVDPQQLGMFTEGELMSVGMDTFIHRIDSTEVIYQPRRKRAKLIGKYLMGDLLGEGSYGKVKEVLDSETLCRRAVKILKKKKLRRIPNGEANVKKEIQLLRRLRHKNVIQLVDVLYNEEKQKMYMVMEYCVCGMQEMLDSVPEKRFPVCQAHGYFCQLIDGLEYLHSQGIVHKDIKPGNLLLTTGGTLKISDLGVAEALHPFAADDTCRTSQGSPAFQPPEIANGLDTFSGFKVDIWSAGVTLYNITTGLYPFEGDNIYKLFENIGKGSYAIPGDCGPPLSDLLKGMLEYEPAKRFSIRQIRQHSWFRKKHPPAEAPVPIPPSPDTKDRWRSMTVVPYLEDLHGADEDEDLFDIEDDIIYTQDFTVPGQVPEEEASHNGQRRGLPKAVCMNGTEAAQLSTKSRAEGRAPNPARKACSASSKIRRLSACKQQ
T4 sequence (Q7RTN6 1-431 partner): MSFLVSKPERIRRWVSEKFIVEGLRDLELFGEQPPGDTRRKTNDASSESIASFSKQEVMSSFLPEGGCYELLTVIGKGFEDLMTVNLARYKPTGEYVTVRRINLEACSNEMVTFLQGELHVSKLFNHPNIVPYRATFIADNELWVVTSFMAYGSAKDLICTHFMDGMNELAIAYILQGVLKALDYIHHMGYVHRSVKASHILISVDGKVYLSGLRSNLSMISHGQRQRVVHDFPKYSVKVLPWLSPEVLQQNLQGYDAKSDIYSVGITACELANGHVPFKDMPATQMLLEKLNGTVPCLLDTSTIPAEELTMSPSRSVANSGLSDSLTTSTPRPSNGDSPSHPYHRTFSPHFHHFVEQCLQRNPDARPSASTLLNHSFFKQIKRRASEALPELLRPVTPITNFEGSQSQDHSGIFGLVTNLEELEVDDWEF
T4 sequence (Q9Y376 1-341 partner): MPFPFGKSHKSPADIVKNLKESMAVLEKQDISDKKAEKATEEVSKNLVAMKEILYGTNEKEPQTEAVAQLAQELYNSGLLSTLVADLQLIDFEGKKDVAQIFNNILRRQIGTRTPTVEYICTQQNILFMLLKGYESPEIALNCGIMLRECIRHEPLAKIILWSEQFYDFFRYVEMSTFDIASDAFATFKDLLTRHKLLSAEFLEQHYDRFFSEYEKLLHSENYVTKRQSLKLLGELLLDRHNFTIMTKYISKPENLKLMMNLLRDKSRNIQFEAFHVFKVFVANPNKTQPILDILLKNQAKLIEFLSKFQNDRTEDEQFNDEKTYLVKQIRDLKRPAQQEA
How it was run: as §1

Row | Sequence | % activity [%]
12 | FAKLAARLYRKALARQLGVAA [MMI-0300] | 101
13 | HRRIKAWLKKIKALARQLGVAA (Mammal) [MMI-0500] | 51
14 | KAFAKLAARLYRKALARQLGVAA [MMI-0400] | 89
15 | YARAAARQARAKALNRQLGVA (Mammal) [MMI-0200] | 99

target: CaMKIIδ(h) (Homo sapiens, UniProt Q13557); assay: Kinase Profiling Assay; format: biochemical; conditions: peptide 100 μM
How it was run: as §1

Sequence of CaMKIIδ(h) (Q13557 whole entry): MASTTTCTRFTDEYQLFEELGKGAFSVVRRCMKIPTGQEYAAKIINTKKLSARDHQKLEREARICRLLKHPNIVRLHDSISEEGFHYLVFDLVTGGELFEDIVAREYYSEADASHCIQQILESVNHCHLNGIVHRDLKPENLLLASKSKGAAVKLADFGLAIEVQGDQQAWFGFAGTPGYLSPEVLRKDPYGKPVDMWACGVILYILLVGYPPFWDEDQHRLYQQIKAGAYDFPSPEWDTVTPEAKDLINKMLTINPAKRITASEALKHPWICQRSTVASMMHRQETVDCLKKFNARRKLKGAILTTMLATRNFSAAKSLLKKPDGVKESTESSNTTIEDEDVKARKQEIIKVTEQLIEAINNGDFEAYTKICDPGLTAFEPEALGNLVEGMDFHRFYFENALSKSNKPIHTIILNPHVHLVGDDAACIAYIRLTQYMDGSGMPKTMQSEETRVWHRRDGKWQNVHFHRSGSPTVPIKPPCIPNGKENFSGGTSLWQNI

Row | Sequence | % activity [%]
16 | FAKLAARLYRKALARQLGVAA [MMI-0300] | 1
17 | HRRIKAWLKKIKALARQLGVAA (Mammal) [MMI-0500] | 1
18 | KAFAKLAARLYRKALARQLGVAA [MMI-0400] | 2
19 | YARAAARQARAKALNRQLGVA (Mammal) [MMI-0200] | 2
